Test system: NANOS3-mCherry hESCs
Assay: PGC differentiation of NANOS3-mCherry hESCs, flow cytometry for NANOS3-mCherry fluorescent reporter expression
Assay type: cell-based, human
Source text: In the NANOS3-mCherry hESC line, a 2A-mCherry fluorescent reporter was inserted immediately downstream of the NANOS3 gene without disrupting its coding sequence (Irie et al., 2014). In the SOX17-GFP hESC line, a GFP fluorescent reporter was inserted immediately after the SOX17 start codon, thus functionally invalidating one SOX17 allele (Wang et al., 2011). In the NANOG-2A-YFP hESC line, Cas9 RNP/AAV6-based genome editing (Martin et al., 2019) was used to insert a 2A-iCaspase9-2A-YFP fluorescent reporter immediately downstream of the NANOG gene without disrupting the NANOG coding sequence.
hPSC differentiation into PGCs. Undifferentiated hPSCs were maintained in mTeSR1 + 1% penicillin/streptomycin and enzymatically passaged (Accutase, 1:8-1:12 split) for differentiation. After overnight recovery in mTeSR1 + Thiazovivin (ROCK inhibitor, 5 µM), the following morning, hPSCs were briefly washed (DMEM/F12) and differentiated into posterior epiblast for 12 hours (100 ng/mL Activin + 3 µM CHIR99021 + 10 µM Y-27632) in aRB27 basal media, which comprised Advanced RPMI 1640 medium supplemented with 1% B27 supplement, 0.1 mM non-essential amino acids (NEAA), 100 U/ml Penicillin + 0.1 mg/ml Streptomycin, and 2 mM L-Glutamine (Kobayashi et al., 2017). Subsequently, […], […], […], 100 ng/mL SCF, 50 ng/mL EGF, 1 µM XAV939, and 10 µM Y-27632 for 24 hours (all in aRB27 basal media). For comparison, published PGC differentiation protocols (Sasaki et al., 2015; Kobayashi et al., 2017) were performed as described previously.
Flow cytometry and fluorescence-activated cell sorting (FACS) for cell-surface marker expression. hPSCs or their differentiated derivatives were dissociated using TrypLE Express (Gibco), were washed off the plate with FACS buffer (PBS + 0.1% BSA fraction V [Gibco] + 1 mM EDTA [Gibco] + 1% penicillin/streptomycin [Gibco]) and were pelleted by centrifugation (5 mins, 4° C.). Subsequently, cell pellets were directly resuspended in FACS buffer containing pre-diluted primary antibodies (listed below), thoroughly triturated to ensure a single cell suspension, and primary antibody staining was conducted for 30 mins on ice. Afterwards, cells were washed with an excess of FACS buffer and pelleted again, and this was conducted one more time. Finally, washed cell pellets were resuspended in FACS buffer containing 1.1 µM DAPI (Biolegend), and were strained through a 35 µm filter. Flow cytometry and sorting was conducted on a BD FACSAria II (Stanford Stem Cell Institute FACS Core).

B1: BMP4: bone morphogenetic protein 4, UniProt P12644 (protein, UniProt P12644 293-408, looked up)
Bone morphogenetic protein 4: SPKHHSQRARKKNKNCRRHSLYVDFSDVGWNDWIVAPPGYQAFYCHGDCPFPLADHLNSTNHAIVQTLVNSVNSSIPKACCVPTELSAISMLYLDEYDKVVLKNYQEMVVEGCGCR
efficiency upon BMP4 subtraction (BMP4 subtraction from D1.5-2.5, in BMP4 + SCF + EGF + XAV939 + Y-27632 D0.5-3.5, readout D3.5, FIG. 5C): enhance efficiency
efficiency on BMP4 titration (BMP4 titrated to 20 ng/mL on D0.5-3.5, monolayer, readout D3.5, FIG. 5D): without significant loss in efficiency
differentiation of PGCs, BMP4 not omitted (continuous BMP4 in second phase, FIG. 5C): about 10%
differentiation of PGCs, BMP4 omitted (omitting BMP4 from the culture media for 24 hrs at day 2 of differentiation, FIG. 5C): ~30%

— patent US20230242871A1, “GENERATION OF PRIMORDIAL GERM CELLS AND METHODS OF USING THE SAME” (The Board of Trustees of the Leland Stanfor Junior …, priority 2020, published 2023)
